The values that follow are results of earlier work, collected in article PMC7821625.

The target of data set [1] is fibronectin (Homo sapiens) (UniProt P02751).
Data set [2] deals with plasminogen (Homo sapiens) (UniProt P00747).
Sequence of UniProt P00747 (P00747 20-810): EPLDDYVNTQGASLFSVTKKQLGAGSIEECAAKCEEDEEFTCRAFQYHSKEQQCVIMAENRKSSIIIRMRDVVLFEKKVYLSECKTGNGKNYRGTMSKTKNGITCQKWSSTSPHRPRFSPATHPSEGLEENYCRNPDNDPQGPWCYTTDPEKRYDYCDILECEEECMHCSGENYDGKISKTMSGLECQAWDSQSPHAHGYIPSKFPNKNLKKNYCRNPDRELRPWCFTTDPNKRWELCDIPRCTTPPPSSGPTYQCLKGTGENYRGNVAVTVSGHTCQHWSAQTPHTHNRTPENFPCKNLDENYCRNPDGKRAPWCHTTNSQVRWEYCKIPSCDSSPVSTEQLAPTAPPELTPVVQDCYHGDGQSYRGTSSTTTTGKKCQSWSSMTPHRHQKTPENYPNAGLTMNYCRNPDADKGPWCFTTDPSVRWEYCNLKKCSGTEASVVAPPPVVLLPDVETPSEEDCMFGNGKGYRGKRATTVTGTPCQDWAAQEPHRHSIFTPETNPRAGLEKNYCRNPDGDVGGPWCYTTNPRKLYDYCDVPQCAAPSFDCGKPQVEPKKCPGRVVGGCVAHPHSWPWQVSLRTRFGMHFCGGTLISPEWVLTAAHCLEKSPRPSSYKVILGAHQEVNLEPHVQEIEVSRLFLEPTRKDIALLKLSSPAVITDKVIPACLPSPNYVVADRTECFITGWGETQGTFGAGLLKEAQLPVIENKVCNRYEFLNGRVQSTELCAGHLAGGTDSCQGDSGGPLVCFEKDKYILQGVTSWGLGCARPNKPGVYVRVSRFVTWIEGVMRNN

Sequence of UniProt P02751 (P02751 32-2477): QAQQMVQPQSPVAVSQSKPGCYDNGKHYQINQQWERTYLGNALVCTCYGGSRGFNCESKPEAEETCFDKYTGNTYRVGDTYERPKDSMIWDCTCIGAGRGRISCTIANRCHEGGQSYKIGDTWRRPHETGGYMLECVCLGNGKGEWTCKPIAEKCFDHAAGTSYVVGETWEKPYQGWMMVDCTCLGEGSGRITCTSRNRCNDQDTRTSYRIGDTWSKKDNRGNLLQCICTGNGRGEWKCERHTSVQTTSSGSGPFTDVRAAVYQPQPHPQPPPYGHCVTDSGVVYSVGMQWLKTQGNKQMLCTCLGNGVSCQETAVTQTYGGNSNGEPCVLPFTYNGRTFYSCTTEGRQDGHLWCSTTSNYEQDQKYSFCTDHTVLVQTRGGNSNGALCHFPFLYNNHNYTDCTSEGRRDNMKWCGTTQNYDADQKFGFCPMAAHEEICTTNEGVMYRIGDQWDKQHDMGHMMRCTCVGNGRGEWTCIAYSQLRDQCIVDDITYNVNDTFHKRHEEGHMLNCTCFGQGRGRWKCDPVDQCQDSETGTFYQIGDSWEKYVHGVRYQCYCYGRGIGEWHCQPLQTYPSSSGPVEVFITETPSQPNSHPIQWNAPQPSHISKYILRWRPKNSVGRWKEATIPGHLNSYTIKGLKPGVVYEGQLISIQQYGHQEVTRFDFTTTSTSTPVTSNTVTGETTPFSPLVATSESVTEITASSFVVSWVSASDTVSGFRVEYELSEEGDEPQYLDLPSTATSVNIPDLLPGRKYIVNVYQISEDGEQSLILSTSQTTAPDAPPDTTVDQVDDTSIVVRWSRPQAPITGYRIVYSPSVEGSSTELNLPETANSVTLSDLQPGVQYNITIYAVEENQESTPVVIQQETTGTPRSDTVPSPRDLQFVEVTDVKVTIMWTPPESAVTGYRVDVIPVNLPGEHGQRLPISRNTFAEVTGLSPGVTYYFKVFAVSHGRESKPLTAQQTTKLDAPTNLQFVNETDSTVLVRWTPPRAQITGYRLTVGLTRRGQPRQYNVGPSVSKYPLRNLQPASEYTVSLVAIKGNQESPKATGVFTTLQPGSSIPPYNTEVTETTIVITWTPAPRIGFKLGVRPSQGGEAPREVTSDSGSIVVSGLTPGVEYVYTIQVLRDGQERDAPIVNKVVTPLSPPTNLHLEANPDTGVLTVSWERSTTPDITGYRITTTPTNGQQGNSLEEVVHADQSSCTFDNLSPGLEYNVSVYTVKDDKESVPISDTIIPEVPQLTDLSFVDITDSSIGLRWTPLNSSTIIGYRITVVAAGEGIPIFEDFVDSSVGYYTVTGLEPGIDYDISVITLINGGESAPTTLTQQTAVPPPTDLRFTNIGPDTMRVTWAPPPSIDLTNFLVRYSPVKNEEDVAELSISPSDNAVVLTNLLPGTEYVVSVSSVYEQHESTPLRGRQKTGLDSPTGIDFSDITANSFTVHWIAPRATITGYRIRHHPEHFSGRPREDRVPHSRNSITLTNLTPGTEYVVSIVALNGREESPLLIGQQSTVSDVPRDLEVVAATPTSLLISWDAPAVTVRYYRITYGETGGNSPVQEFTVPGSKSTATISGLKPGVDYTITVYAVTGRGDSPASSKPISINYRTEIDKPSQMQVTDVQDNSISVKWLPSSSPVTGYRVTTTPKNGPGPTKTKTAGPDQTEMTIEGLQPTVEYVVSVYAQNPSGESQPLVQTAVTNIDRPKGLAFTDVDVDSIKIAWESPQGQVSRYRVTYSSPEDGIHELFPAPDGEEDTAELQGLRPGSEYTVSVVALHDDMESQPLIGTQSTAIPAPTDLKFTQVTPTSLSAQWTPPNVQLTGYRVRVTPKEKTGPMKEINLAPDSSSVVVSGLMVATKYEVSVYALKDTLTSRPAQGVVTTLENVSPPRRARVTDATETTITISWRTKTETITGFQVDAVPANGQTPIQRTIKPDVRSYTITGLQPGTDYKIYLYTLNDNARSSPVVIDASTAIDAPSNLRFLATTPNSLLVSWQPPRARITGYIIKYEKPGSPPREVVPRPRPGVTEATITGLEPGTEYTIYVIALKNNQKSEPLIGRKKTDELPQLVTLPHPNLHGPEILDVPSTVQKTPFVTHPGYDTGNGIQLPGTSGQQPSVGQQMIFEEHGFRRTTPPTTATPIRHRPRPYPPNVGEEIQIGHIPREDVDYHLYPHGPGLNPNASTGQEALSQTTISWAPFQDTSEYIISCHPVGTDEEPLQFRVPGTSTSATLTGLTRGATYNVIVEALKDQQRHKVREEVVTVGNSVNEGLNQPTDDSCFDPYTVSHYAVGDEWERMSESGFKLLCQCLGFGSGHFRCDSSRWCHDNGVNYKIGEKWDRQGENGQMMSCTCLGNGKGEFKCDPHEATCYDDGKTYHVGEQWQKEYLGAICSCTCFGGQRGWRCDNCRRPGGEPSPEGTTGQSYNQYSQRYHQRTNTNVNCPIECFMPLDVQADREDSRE

Turning to LigA LigA7'-13 (from UniProt Q72MA6), the Kd in data set [1] was 126 nM; in data set [2] it was 1200 nM.

Broadly, the Kd is a measure of binding affinity in units of concentration.
